Data from the supplement of paper PMC10567573.

B1: LMNB1 (parent)
chain: LYKEELEQTYHAKLENARLSSEMN
B2: ESRRA (parent)
chain: LGVAQRSLPLQDELAFAEDLVLDE

Variants of: B1
Assay: protein stability index of a GFP-peptide fusion (GPS, HEK-293T) (PSI 1-6); higher = more stable
Details: c terminus: a fixed tail appended
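Note: lentivirally expressed fusions sorted by FACS into six bins by GFP to DsRed ratio, PSI derived from sequencing read proportions per bin multiplied by bin number.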

Protein stability index, by site and new letter:
Q8: R 2.81; I 2.52; F 2.09; S 2.56; M 2.5; W 1.71; E 3.15; T 3.21; D 3.46; K 2.49; P 3.84; Y 2.45; H 2.08; L 2.38; V 2.09; C 2.86; A 2.19; N 2.8
L6: V 4.34; R 4.38; S 4.7; E 4.49; Q 5.03; Y 4.48; D 4.72; C 3.8; G 3.81; F 3.21; W 4.74; K 4.4; N 4.57; T 4.75; A 4.29; H 4.26; P 4.39; I 3.46; M 4.03
E5: N 2.53; R 1.76; P 3.1; V 2.77; C 2.32; S 2.4; G 2.46; D 3.01; K 3.09; Y 3.37; W 1.37; Q 1.54; F 2.28; T 1.83; L 3.89; A 2.28; H 2.27; M 2.42; I 1.82
E4: S 2.94; R 2.51; C 2.38; T 3.06; G 2.38; M 2.18; Q 2.56; A 2.7; N 3.27; H 2.94; L 2.17; K 2.46; P 3.68; W 1.55; Y 2.08; F 2.37; D 2.69; I 2.02; V 2.97
T9: E 4.24; L 2.16; H 2.7; D 4.61; F 2.57; C 3.12; K 3.1; I 2.6; A 3.59
E7: F 1.83; V 3.05; Q 3.4; W 2.34; A 2.47; T 3.26; I 2.84; M 2.07; P 3.35; D 3.52; N 3.38; C 2.11; S 2.72; R 3.44; K 2.77; H 2.53; L 3.17; G 3.23; Y 2.38
Y2: R 3.48; L 3.04; E 4.37; G 4.15; K 3.27; Q 4.21; C 2.78; D 4.18; H 4; S 4.12; M 2.31; P 3.06; W 1.5; F 1.96; T 4.08; V 1.77; N 3.46; I 2.09; A 2.91
K3: E 2.47; S 2.65; N 3.29; H 2.91; Y 2.34; G 2.73; I 2.19; W 1.61; A 1.94; Q 2.56; F 1.77; C 2.64; D 3.56; P 3.09; R 2.9; T 2.81; V 1.67; M 1.7; L 1.79
L1: F 2.27; V 2.75; K 2.97; A 2.92; N 2.98; E 3.99; D 4.03; T 2.85; S 2.9; Q 3.6; G 3.53; Y 3.24; C 3.14; P 4.45; M 3.06; W 2.21; R 2.91; I 2.5; H 3.19

Variants of: B2
Assay: as above
Details: c terminus: a fixed tail appended

Protein stability index, by site and new letter:
D19: Q 3.58; T 1.91; S 2.21; E 2.34; P 4.89; K 2.49; C 1.82
L8: Y 1.86; V 3.53; E 5; A 3.17; F 2.33; P 3.71; S 2.83; C 3.2; T 3.24; Q 3.72; D 4.91
L20: S 4.4; Y 4.67; D 5.36; P 5.75; W 4.82; V 3.67; E 3.12
Q5: M 2.91; R 1.74; C 1.76; L 2.07; W 2.07; E 3.16
S7: Q 3.18; M 2.84; H 2.29; I 2.98; C 2.4; R 2.52; Y 2.37
A15: Q 3.65; T 3.26; V 4.41; Y 4.29; E 4.74; I 4.41; R 1.82; F 4.42; W 3.22; K 2.3
L22: Q 3.81; C 3.76; P 5.34; G 5.51; R 2.89
Q11: A 3.11; G 3.38; L 3.3; V 3.14; I 3.35; H 3.21; C 3.94
P9: I 2.85; T 4.04; C 4.38; D 3.17; F 3.54; M 3.53; H 3.69; Y 3.66
R6: T 3.23; A 3.14; K 2.92; F 2.26; D 4.23; W 2.17; E 3.27; S 2.98; L 2.34; V 3.09; Y 2.16; C 1.84
A4: I 1.59; M 2.58; Y 2.1; R 1.86; C 2.02; F 2.23; S 2.81
E13: M 3.16; V 2.64; N 5.15; A 1.75; H 4.44; K 4.95; T 3.92; Q 2.99; C 3.38; F 3.12
L14: Q 5.27; V 4.92; A 5.24
E18: P 4.64; T 4.81; A 4.25; M 3.84; R 5.04; I 2.56
D12: R 1.95; K 2.98; A 3.13; H 2.17; S 2.01; N 3.19; E 2.3; M 2.37
F16: L 2.96; C 3.86; P 5.83; A 3.16; Y 2.93
G2: A 3.14; N 3.08; D 3.02; E 3.17; W 1.79; R 1.93; T 2.91
E24: R 3.38; A 1.89; Y 2.53; P 3.92; M 2.95; F 2.42; D 4.07; I 3.34; Q 3.67
A17: Y 3.39; S 4.49; G 4.76; T 3.8; W 2.02; K 5.25
V3: Y 2.16; R 2.58; A 2.92; E 4.36; C 2.86; N 3.1; G 3.15; K 2.39; I 2.21; P 2.73; F 2.31
L1: E 4.04; A 2.99; P 3.63; V 2.8
V21: L 3.96; Q 5.24; F 4.63; R 4.83; Y 4.61; E 5.31
L10: W 4.84; A 5.58; H 5.26; M 3.54; Q 5.45; V 4.64; N 5.12; E 4.36; D 5.42
D23: T 3.21; G 1.72; Y 2.3
